Assay results: US20170298106A1 (ZYNGENIA, published 2017)
Where no end group is shown, it is not given here. MBP = maltose binding protein (MBP), fused to the peptide

T1: angiopoietin-2 (Ang2) (human, UniProt O15123 68-496, limits assumed)
T1 construct: Plain and biotinylated Ang2 are kept as one molecule; also called rhAng2; recombinant Ang2
T1 sequence (looked up): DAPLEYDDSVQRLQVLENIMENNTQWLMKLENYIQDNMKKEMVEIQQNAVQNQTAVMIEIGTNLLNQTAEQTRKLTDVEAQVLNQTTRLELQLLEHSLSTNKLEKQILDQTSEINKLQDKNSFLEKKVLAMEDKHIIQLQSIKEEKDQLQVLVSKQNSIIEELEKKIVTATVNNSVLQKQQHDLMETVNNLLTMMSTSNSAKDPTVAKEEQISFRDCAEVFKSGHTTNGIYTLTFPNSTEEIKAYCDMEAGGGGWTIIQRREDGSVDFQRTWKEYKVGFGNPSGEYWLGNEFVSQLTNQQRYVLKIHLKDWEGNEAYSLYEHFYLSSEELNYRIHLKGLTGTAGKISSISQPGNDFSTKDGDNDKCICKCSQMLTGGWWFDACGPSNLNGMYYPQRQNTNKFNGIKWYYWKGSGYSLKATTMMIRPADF

B1: Her-sL-RGD4C (bispecific antibody, not shown: a dimerising Fc or GST)
light (part 1 of 2): not shown
light (part 2 of 2): GGGSCDCRGDCFC
VH: not shown
notes: Her = HERCEPTIN
B2: AVA-lm32(H) (bispecific antibody, not shown: a dimerising Fc or GST)
heavy (part 1 of 2): EVQLVESGGGLVQPGGSLRLSCAASGYTFTNYGMNWVRQAPGKGLEWVGWINTYTGEPTYAADFKRRFTFSLDTSKSTAYLQMNSLRAEDTAVYYCAKYPHYYGSSHWYFDVWGQGTLVTVSS
heavy (part 2 of 2): MGAQTNFMPMDNDELLLYEQFILQQGLE
VL: DIQMTQSPSSLSASVGDRVTITCSASQDISNYLNWYQQKPGKAPKVLIYFTSSLHSGVPSRFSGSGSGTDFTLTISSLQPEDFATYYCQQYSTVPWTFGQGTKVEIKR
notes: also called AVASTIN with the lm32 MRD fused to the heavy chain
B3: Her-1L-RP (bispecific antibody, not shown: a dimerising Fc or GST)
light (part 1 of 2): not shown
light (part 2 of 2): SSGGGGSGGGGGGSSRSSSFYSCLESLVNGPAEKSRGQWDGCRKK
VH: not shown
notes: Her = HERCEPTIN
B4: HER-lm32(H) (bispecific antibody, not shown: a dimerising Fc or GST)
heavy (part 1 of 2): not shown
heavy (part 2 of 2): KSLSLSPGKGGGSMGAQTNFMPMDNDELLLYEQFILQQGLE
VL: not shown
notes: also called HERCEPTIN-lm32 fusion; HERCEPTIN lm-32

Molecular target: T2, integrin αvβ3 (UniProt P06756 31-992; P05106 27-718, limits assumed)
T2 construct: Antigen of the ELISAs
T2 sequence (P06756 31-992 limits assumed, chain 1 of 2): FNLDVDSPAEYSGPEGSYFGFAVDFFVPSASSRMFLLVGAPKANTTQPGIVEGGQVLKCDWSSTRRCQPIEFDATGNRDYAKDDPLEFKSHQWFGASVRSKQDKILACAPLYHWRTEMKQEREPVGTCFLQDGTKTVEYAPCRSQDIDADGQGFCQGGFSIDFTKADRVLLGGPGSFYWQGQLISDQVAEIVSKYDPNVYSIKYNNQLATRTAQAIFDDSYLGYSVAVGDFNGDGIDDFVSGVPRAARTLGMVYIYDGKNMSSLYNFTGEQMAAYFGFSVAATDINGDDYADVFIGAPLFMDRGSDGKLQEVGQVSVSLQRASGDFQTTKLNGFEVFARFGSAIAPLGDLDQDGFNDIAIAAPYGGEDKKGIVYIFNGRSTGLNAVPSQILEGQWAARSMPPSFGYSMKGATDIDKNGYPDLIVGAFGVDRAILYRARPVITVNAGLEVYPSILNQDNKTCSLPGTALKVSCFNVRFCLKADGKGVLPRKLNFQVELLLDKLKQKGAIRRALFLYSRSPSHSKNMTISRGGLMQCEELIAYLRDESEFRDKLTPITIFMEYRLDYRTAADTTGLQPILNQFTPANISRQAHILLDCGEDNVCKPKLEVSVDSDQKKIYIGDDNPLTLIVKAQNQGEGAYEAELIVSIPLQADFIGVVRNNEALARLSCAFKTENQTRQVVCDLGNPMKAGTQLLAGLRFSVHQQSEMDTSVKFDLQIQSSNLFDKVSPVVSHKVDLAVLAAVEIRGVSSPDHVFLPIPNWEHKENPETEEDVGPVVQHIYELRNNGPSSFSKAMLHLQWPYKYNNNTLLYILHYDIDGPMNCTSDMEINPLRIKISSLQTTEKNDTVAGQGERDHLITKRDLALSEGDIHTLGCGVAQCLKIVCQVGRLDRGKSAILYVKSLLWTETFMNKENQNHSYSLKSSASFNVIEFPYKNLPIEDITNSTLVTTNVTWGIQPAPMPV
T2 sequence (P05106 27-718 limits assumed, chain 2 of 2): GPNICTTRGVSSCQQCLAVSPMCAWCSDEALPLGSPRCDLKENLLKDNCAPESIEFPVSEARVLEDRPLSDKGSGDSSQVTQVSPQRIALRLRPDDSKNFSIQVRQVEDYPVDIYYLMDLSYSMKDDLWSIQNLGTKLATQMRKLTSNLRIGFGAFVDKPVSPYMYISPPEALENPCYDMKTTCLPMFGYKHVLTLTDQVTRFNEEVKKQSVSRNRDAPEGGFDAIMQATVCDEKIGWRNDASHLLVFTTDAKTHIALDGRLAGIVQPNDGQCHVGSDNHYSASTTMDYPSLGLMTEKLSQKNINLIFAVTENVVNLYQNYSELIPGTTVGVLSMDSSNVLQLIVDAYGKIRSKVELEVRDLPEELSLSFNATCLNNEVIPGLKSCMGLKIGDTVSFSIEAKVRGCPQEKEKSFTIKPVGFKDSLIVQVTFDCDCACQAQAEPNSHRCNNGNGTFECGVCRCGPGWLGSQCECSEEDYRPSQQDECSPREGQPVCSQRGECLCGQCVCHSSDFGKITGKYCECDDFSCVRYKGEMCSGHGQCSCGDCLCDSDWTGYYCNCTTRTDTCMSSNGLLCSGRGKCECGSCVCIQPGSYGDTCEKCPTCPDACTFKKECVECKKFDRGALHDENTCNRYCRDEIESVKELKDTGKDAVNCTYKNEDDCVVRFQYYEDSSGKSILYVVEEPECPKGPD
Test: ELISA, coated antigen, absorbance at 405 nm, one condition per construct, BSA-coated wells as control; the bar labelled Antigen is the antigen of the MRD of the construct, here integrin avb3

Row | Binder | binding result
1 | B1 | no binding

Molecular target: T3, VEGF (human, UniProt P15692-4 27-191)
T3 sequence (P15692 other isoform, or with tags, fused parts or gaps limits assumed): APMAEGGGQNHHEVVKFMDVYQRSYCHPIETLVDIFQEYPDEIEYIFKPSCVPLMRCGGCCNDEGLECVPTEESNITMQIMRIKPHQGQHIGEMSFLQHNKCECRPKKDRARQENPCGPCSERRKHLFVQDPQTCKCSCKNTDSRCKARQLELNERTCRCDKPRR
Test: cell-based or functional assay

Row | Binder | inhibition of VEGF-induced proliferation of HUVEC, IC50
2 | B2 | 0.36 nM

Molecular target: insulin receptor (UniProt P06213-2 28-944, limits assumed)
Sequence (P06213 other isoform, or with tags, fused parts or gaps limits assumed): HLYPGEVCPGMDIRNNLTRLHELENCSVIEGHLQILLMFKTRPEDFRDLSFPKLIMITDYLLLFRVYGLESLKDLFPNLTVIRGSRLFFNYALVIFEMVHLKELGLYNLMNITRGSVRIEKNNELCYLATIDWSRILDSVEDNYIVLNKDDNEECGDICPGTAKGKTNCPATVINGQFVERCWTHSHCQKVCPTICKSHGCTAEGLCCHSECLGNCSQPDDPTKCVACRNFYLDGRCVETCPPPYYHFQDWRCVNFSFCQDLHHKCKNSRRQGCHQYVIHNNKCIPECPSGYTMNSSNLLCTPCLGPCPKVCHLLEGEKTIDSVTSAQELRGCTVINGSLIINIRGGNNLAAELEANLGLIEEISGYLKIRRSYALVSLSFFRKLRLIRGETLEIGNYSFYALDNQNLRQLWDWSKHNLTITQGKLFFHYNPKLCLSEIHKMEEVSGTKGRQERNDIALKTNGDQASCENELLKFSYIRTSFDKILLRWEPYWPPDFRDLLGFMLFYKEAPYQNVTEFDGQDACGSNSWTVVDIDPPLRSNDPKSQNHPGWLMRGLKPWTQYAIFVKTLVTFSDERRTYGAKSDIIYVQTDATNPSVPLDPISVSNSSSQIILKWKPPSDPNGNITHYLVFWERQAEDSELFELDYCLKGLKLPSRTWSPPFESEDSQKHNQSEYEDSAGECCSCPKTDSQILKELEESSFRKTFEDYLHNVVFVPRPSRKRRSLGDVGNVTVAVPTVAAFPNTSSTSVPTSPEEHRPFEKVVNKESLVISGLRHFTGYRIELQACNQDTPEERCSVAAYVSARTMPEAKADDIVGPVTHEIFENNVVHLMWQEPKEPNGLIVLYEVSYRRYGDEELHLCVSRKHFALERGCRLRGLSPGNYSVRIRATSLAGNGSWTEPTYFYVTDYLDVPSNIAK
Test: not described

Row | Binder | binding result
3 | NFYQCIEHLSGSPAEKSRGQWQECRTG [Rm4-44] | no binding
4 | NFYQCIESLAGGPAEKSRGQWQECRTG [Rm4-45] | no binding
5 | NFYQCIEALVGVPAEKSRGQWQECRTG [Rm4-46] | no binding
6 | NFYQCIEALQSRPAEKSRGQWQECRTGG [Rm4-316] | no binding
7 | NFYQCIELLSARPAEKSRGQWAECRAG [Rm4-415] | no binding
8 | NFYQCIEYLAMKPAEKSRGQWQECRTGG [Rm4-314] | no binding
9 | NFYQCIEALARTPAEKSRGQWVECRAP [Rm4-417] | no binding
10 | NFYQCIEQLSSGPAEKSRGQWQECRTG [Rm4-411] | no binding
11 | NFYQCIEALSRSPAEKSRGQWQECRTGG [Rm4-319] | no binding
12 | NFYQCIEMLASHPAEKSRGQWQECRTGG [Rm4-31] | no binding
13 | NFYQCIEQLALRPAEKSRGQWQECRTGG [Rm4-33] | no binding
14 | NFYQCIERLVTGPAEKSRGQWQECRTGG [Rm4-310] | no binding
15 | NFYQCIEVFWGRPAEKSRGQWQECRTG [Rm4-410] | no binding
16 | NFYQCIDLLMAYPAEKSRGQWQECRTGG [Rm4-39] | no binding
17 | NFYQCIEMLSLPPAEKSRGQWQECRTG [Rm4-49] | no binding

Molecular target: T1, angiopoietin-2 (Ang2)
Test: binding of MBP fusion to Ang2

Row | Binder | EC50
18 | {MBP}-KSLSLSPGSGGGSMGAQTNFMPMDNDELLLYEQFI (other, not shown: large carriers, also: N-terminal MBP fusion, not in chain) [MBP fusion of LM32 variant SEQ ID NO:32] | 1.08 nM
19 | {MBP}-KSLSLSPGSGGGSMGAQTNFMPMDNEELLLYEQFI (other, not shown: large carriers, also: N-terminal MBP fusion, not in chain) [MBP fusion of LM32 variant SEQ ID NO:33] | 20.7 nM
20 | {MBP}-KSLSLSPGSGGGSMGAQTNFMPMDNDEALLYEQFILQQGLE (other, not shown: large carriers, also: N-terminal MBP fusion, not in chain) [MBP fusion of LM32 variant SEQ ID NO:90] | 0.182 nM
21 | {MBP}-KSLSLSPGSGGGSMGAQTNFMPMDNDEALLYEEFILQQGLE (other, not shown: large carriers, also: N-terminal MBP fusion, not in chain) [MBP fusion of LM32 variant SEQ ID NO:97] | 0.426 nM
22 | {MBP}-KSLSLSPGSGGGSMGAQTNFMPMDNDEGLLYEQFIYQQGLE (other, not shown: large carriers, also: N-terminal MBP fusion, not in chain) [MBP fusion of LM32 variant SEQ ID NO:93] | 0.902 nM
23 | {MBP}-KSLSLSPGSGGGSMGAQTNFMPMDQDELLLYEQFILQQGLE (other, not shown: large carriers, also: N-terminal MBP fusion, not in chain) [MBP fusion of LM32 variant SEQ ID NO:99] | 0.383 nM
24 | {MBP}-KSLSLSPGSGGGSMGAQTNFMPMDDDELLLYEQFILQQGLE (other, not shown: large carriers, also: N-terminal MBP fusion, not in chain) [MBP fusion of LM32 variant SEQ ID NO:100] | 0.24 nM
25 | {MBP}-KSLSLSPGSGGGSMGAQTNFMPMDNDELTLYEQFILQQGLE (other, not shown: large carriers, also: N-terminal MBP fusion, not in chain) [MBP fusion of LM32 variant SEQ ID NO:91] | 1.42 nM
26 | {MBP}-KSLSLSPGSGGGSMGAQTNFMPMDNDEGLLYEEFILQQGLE (other, not shown: large carriers, also: N-terminal MBP fusion, not in chain) [MBP fusion of LM32 variant SEQ ID NO:96] | 0.922 nM
27 | {MBP}-KSLSLSPGSGGGSMGAQTNFMPMDNDEALLYEQFIYQQGLE (other, not shown: large carriers, also: N-terminal MBP fusion, not in chain) [MBP fusion of LM32 variant SEQ ID NO:94] | 0.392 nM

Molecular target: T1, angiopoietin-2 (Ang2)
Test: ELISA on rhAng2-coated wells, MRD-MBP fusion, anti-MBP detection; EC50 by 4 parameter fit
Description: MBP fusion proteins were serially diluted in Blocking buffer and added to wells for 2 hours at RT. After washing (8×300 μl wash buffer), samples were treated with HRP-mouse anti MBP mAb (NEB, cat # E8038S), diluted 1:4000 in Blocking buffer. After incubation for 1 hour at RT, wells were washed (8×300 μl wash buffer) prior to receiving 100 μl of TMB substrate (KPL Laboratories). Color development was stopped with 100 μl of H₂SO₄, and absorbance was read at 450 nm.
Bound fusion proteins were detected with anti-MBP mAb. Assayed proteins represent mutational variants of the sequence […] […] (L17D) (SEQ ID NO:107). In this series, the motif MDD within L17D was mutated at the first D to all other possible amino acids (except cysteine). Other MRDs tested were “Lm32 KtoS” and a dimer of Lm32 (2×Lm32).

Row | Binder | EC50
28 | {MBP}-PGSGGGSMGAQTNFMPMDNDELLLYEQFILQQGLE (other, not shown: small tags and cut ends, also: N-terminal MBP fusion, not in chain) [Lm32 KtoS-MBP fusion] | 0.199 nM

Molecular target: T3, VEGF
Test: sandwich ELISA, human VEGF coated (30 ng/ml), zybody varied in 3.876 ug/ml biotinylated Ang2, detection with HRP-streptavidin, A450
Description: (§1) Ninety-six-well plates were coated overnight with human VEGF (PeproTech, Inc. cat#100-20) at 30 ng/ml (100 μl/well). […] After washing (8×300 μl wash buffer), parallel samples received either HRP-conjugated anti-human kappa chain mAb (Abeam, cat # ab79115) diluted 1:1000 in Blocking buffer or HRP-conjugated streptavidin (Thermo Scientific cat#N100) diluted 1:4000 diluted in Blocking buffer. After incubation for 1 hour at RT, wells were washed (8×300 μl wash buffer) prior to receiving 100 μl of TMB substrate (KPL Laboratories). Color development was stopped with 100 μl of H₂SO₄, and absorbance was read at 450 nm.

Row | Binder | EC50 (read off the curve)
29 | B2 | ~0.7 nM

Molecular target: T4, insulin-like growth factor-I receptor (IGF1R) (UniProt P08069 31-932, limits assumed)
T4 construct: also called immobilized IGF-1R
Test: ELISA, coated antigen, absorbance at 405 nm, one condition per construct, BSA-coated wells as control; the bar labelled Antigen is the antigen of the MRD of the construct, here IGF1R (RP)

Row | Binder | binding result
30 | B3 | no binding

Molecular target: T5, rHER2-Fc (UniProt P04626 23-652)
T5 construct: Bought reagent; also called Her2 (ErbB2) Fc; ErbB2-Fc
Test: ELISA, rHER2-Fc coated (20 ng/ml), sample diluted in 1.94 ug/ml biotinylated Ang2, detection with HRP anti-human kappa chain mAb, A450
Description: as §1, with “with rHER2-Fc (R&D cat#1129-ER-050)” for “with human VEGF (PeproTech, Inc. cat#100-20)”, “at 20” for “at 30”, “ng/ml (100W/well).” for “ng/ml (100 μl/well).”, “chain mAb-(Abeam,” for “chain mAb (Abeam,”, “# ab79115-1)” for “# ab79115)”

Row | Binder | binding result
31 | B2 | no binding (tested: about 7 nM)

Molecular target: T3, VEGF
Test: ELISA, human VEGF coated (30 ng/ml), sample diluted in 3.876 ug/ml biotinylated Ang2, detection with HRP anti-human kappa chain mAb, A450
Description: as §1

Row | Binder | EC50 (read off the curve) | binding result
32 | B2 | ~0.5 nM | –
33 | B4 | – | no binding (tested: about 20 nM)
